Data set [1] concerns the target T1, IcaR wild type (Staphylococcus epidermidis ATCC 35984 …, UniProt Q5HKQ1 1-185).
T1 sequence: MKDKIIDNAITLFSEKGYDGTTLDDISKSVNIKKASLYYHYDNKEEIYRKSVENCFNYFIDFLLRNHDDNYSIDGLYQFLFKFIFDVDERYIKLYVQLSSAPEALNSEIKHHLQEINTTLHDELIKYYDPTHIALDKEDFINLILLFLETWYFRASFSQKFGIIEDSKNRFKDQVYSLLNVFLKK
The experiment in a line: EMSA. On the technique in general: In EMSA bound probe runs differently from free probe, usually more slowly.

A further data set addresses T2, IcaR K33E (Staphylococcus epidermidis ATCC 35984 …, UniProt Q5HKQ1 1-185, K33E).
T2 sequence: T1 sequence with K33E
The experiment in a line: ITC.

For data set [2], the target named is T1, IcaR wild type. The experiment in a line: EMSA. The source holds these as a separate data set.

Numbering of substitutions follows the chain as printed. Like-named read-outs stand apart in the source and are kept apart here.

B1: 16 bp probe (same center as 28E) (dsDNA)
DNA 1: TAACTAACGAAAGGTA
DNA 2: TACCTTTCGTTAGTTA
For the molecule B1, the binding result with IcaR wild type [1] is reported as “no binding”.

B2: 28E (dsDNA)
DNA 1: ACAACCTAACTAACGAAAGGTAGGTGAA
DNA 2: TTCACCTACCTTTCGTTAGTTAGGTTGT
On to B2, for which, in the data set with IcaR K33E, the binding result was “no binding”.

B3: 24E (dsDNA)
DNA 1: AACCTAACTAACGAAAGGTAGGTG
DNA 2: CACCTACCTTTCGTTAGTTAGGTT
Regarding B3, in the data set with IcaR wild type [2], the binding result is given as “binds”.

The values above are taken from publication PMC2275139.
